Data as given in publication PMC8248410 (Chemmedchem, 2021).
The star is where a group is joined. Biotin = O=C1N[C@H]2[C@H](CS[C@H]2CCCCC(=O)*)N1; Ahx = NCCCCCC(=O)O

Biological target: gp120_(HxBc2) (HIV-1 (HxBc2), UniProt P04578 33-511)
Assay: cell-based or functional assay

Binder | IC50 of inhibition of HIV-1 NL4-3 infection of CEMx174 SEAP reporter cells [nM]
Ac-LCDCPNGPWVWVPAFCQAVG-OH (cysteine pairing not given here) [P6‐2] | 2630
{Biotin-Ahx}-LCDCPNGPWVWVPAFCQAVG-OH (cysteine pairing not given here) [P6‐2(Bio)] | 1240
